Biological target: HLA-A*0201 (recombinant heavy chain with beta-2 microglobulin) (human)
Test: ELISA-based HLA refolding assay
Description: Stable HLA/peptide complexes consist of three molecules: HLA heavy chain, beta-2 microglobulin (b2m) and the peptidic ligand. […] The availability of these molecules is used in an ELISA-based assay to measure the affinity of interaction between peptide and HLA class I molecule (Sylvester-Hvid et al., 2002).
The amount of de novo-folded HLA/peptide complexes was determined by a quantitative ELISA. Dissociation constants (KD values) were calculated using a standard curve recorded from dilutions of a calibrant HLA/peptide complex.

Row | binding result | Binder
1 | binds | KVFAGIPTV [PTP-005]
2 | binds | SLWAGVVVL [CHI-001]
3 | binds | FLYKVILSL [PTP-002]
4 | binds | FLLPDTDGL [PTP-004]
5 | binds | ALTTLMHQL (9-mer from PTPRZ1) [PTP-001]
6 | binds | AIIDGVESV [PTP-003]

Biological target: T1, HLA-A*0205 (human)
T1 construct: whole, on cells; Native HLA precipitated from tumor tissue
Test: peptide eluted from HLA precipitated from glioblastoma tissue, identified by ESI-LCMS

Row | binding result | Binder
7 | binds | ALTTLMHQL (9-mer from PTPRZ1) [PTP-001]

Source: patent US20090123489A1 (IMMATICS BIOTECHNOLOGIES, published 2009)
